Molecular target: T1, FLT3 (Homo sapiens, UniProt P36888)
T1 sequence (P36888 27-993): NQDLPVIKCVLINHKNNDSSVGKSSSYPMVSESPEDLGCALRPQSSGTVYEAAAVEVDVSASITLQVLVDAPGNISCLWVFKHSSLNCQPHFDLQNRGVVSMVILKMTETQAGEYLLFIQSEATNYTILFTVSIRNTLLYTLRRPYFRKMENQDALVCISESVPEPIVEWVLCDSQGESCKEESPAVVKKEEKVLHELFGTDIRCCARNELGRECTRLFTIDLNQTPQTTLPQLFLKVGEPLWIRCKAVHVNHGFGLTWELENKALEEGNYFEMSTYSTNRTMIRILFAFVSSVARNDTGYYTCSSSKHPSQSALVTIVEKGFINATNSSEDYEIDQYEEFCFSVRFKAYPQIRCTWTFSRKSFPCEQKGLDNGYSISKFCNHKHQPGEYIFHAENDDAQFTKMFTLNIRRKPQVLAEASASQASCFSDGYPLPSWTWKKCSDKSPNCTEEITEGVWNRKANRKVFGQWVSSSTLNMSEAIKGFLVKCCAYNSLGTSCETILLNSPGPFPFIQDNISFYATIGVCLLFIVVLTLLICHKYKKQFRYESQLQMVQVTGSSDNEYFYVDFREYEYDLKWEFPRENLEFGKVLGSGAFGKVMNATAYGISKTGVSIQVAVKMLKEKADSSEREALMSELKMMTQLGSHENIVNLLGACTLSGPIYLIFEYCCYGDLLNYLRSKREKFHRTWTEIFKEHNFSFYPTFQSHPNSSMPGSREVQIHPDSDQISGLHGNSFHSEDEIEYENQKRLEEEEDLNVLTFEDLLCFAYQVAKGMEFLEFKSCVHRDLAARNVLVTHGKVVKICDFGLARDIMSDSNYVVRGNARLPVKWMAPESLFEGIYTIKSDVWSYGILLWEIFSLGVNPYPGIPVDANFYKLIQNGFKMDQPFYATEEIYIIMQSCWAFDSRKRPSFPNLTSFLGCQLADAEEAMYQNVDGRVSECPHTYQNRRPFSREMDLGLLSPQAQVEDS
Assay: Phosphorylation of existing peptide substrate by FLT3
Assay type: biochemical
Settings: in the applicant's experience

- phosphorylation by FLT3: poorly phosphorylated
Sequence: FTDRLQQYISTR [Flt3tide, previously reported Flt3 substrate peptide (Böhmer & Uecker 2009)]

Source: patent publication US10590168B2, “Substrates for FLT3 kinase and uses thereof” (REGENTS OF THE UNIVERSITY OF MINNESOTA, priority 2016, dated 2020)
